Experimental data published in the supplement of paper PMC10126150.
± gives the standard deviation of the averaged measurements.

Tested on: ATP
Test: switch fluorescence ratio, 500 uM ATP over buffer (Cy3 cluster intensity, sum of 5 cycles each) (fold (ratio)); higher = stronger signal-on switching upon ATP binding; sequences stand for … in TCGTCGGCAGCGTCAGATGTGTATAAGAGACAGTTTTTTTTTTTTTTTTTTTTTTTTT…TC
Details: aptamer strand: ATP DNA aptamer (quencher-CACCTGGGGGAGTATTGCGGAGGAAGG + anchor), 100 nM annealed; ATP concentration: 500 uM
How it was run: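 Five buffer/ATP imaging cycles were run on Cy3-labelled switching-strand clusters on a modified Illumina MiSeq flow-cell, with NaOH stripping and re-annealing between cycles. In each cycle, clusters annealed to 100 nM quencher-labelled ATP aptamer were imaged in selection buffer, then after 15 min with 500 uM ATP at 22 °C. Per cluster, the fluorescence ratio is summed target-cycle over summed buffer-cycle Cy3 intensity, averaged per switch-domain sequence. Only clusters within 100-1000 RFU were kept.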
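Further: ATP exposure 15 min at 22 °C before imaging.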

Sequence	switch fluorescence ratio
TCGTAGTGGG	1.01 ± 0.054
TCGTAGTTGC	1.24 ± 0.027
TCGTATAAGG	0.982 ± 0.037
TCGTATAGAG	1 ± 0.017
TCGTATATTA	1.02 ± 0.013
TCGTATGATA	0.968 ± 0.036
TCGTATTGGT	1.02 ± 0.023
TCGTATTGTG	0.975 ± 0.032
TCGTCCGGAG	1.55 ± 0.016
TCGTCCGGCG	0.96503 ± 0.00055
TCGTCGAACG	0.988 ± 0.04
TCGTGCAGTT	1.01 ± 0.015
TCGTGGATGG	1 ± 0.026
TCGTGGGAAG	0.9721 ± 0.0062
TCGTGGGGGG	0.991 ± 0.031
TCGTGGGTAT	0.998 ± 0.025
TCGTGTACGG	1.04 ± 0.016
TCGTGTAGCT	1 ± 0.03
TCGTGTGTTC	1.022 ± 0.0047
TCGTGTTTTC	1.03 ± 0.083
TCGTTATGTG	0.9829 ± 0.0085
TCGTTGGATG	0.9829 ± 0.0013
TCGTTGGGAT	0.986 ± 0.053
TCGTTGGGGT	0.987 ± 0.029
TCGTTTGCGT	0.984 ± 0.032
TCGTTTGGAG	0.998 ± 0.022

Sequence	switch fluorescence ratio
TCGTTTGGGG	1.05 ± 0.061
TCGTTTGGGT	0.978 ± 0.035
TCGTTTTCCT	1.02 ± 0.043
TCTAAATCTT	1.01 ± 0.011
TCTAAGTAAC	1 ± 0.025
TCTAAGTATT	1.02 ± 0.026
TCTAAGTTGT	1.002 ± 0.0058
TCTAATTGGG	1.01 ± 0.037
TCTAATTTCC	1.05 ± 0.045
TCTAGTTTAT	0.987 ± 0.033
TCTATAATGT	0.965 ± 0.025
TCTATACTTT	1 ± 0.021
TCTATGGCTA	1.03 ± 0.03
TCTATGGGGG	0.986 ± 0.019
TCTATGGTGA	1.0391 ± 0.00096
TCTATTGTAA	0.991 ± 0.049
TCTATTTGCA	1 ± 0.042
TCTATTTGTA	0.9993 ± 0.0071
TCTATTTTGT	0.988 ± 0.017
TCTCACGGAA	1.68 ± 0.19
TCTCGACTCA	0.999 ± 0.02
TCTCGCGGGA	0.97 ± 0.023
TCTCGGGGCG	1 ± 0.055
TCTCTTCCGT	1.22 ± 0.056
TCTGAATTCA	0.972 ± 0.026
TCTGACGGTG	1.01 ± 0.017

Sequence	switch fluorescence ratio
TCTGAGGGTT	1.13 ± 0.12
TCTGAGTAGG	1 ± 0.037
TCTGATATAG	1 ± 0.003
TCTGATGAAT	1.02 ± 0.034
TCTGCCACCT	1.023 ± 0.0075
TCTGCTAAAG	1.01 ± 0.022
TCTGCTAAGG	0.98406 ± 0.00079
TCTGCTAGTT	1.02 ± 0.021
TCTGCTTGAG	1.03 ± 0.022
TCTGGAGTT	1.077 ± 0.005
TCTGGATTGT	0.97294 ± 3.9e-05
TCTGGCCTTC	1.09 ± 0.1
TCTGGCGGGG	1.21 ± 0.38
TCTGGCGTTG	0.983 ± 0.01
TCTGGGACGT	0.9824 ± 0.0033
TCTGGGCAGC	1.04 ± 0.05
TCTGGGGATG	0.974 ± 0.072
TCTGGGGCGT	1.007 ± 0.0086
TCTGGGGCTG	0.969 ± 0.016
TCTGGGGGGA	1.01 ± 0.019
TCTGGGGGTG	1.02 ± 0.059
TCTGGGGTGT	1.13 ± 0.18
TCTGGGTATG	0.988 ± 0.016
TCTGGGTGGT	0.977 ± 0.042
TCTGGTAGAG	1.02 ± 0.023
TCTGGTAGTG	1.03 ± 0.035

Sequence	switch fluorescence ratio
TCTGGTCGCT	1.018 ± 0.01
TCTGTATCTA	0.993 ± 0.021
TCTGTCAAGG	1 ± 0.034
TCTGTCCCTT	1.01 ± 0.024
TCTGTGCAGG	1 ± 0.015
TCTGTGCTGG	0.98 ± 0.024
TCTGTGGCAA	1.18 ± 0.28
TCTGTGGCTG	1.05 ± 0.1
TCTGTGGTGT	1.026 ± 0.0028
TCTGTTATCG	0.983 ± 0.043
TCTGTTCTT	1 ± 0.023
TCTGTTGAAT	1.01 ± 0.072
TCTGTTGGGG	0.992 ± 0.038
TCTTAAGGGC	0.972 ± 0.01
TCTTAATGTA	0.985 ± 0.015
TCTTACAGTA	1.09 ± 0.04
TCTTAGACAT	0.9646 ± 0.0028
TCTTATAAAC	1.02 ± 0.023
TCTTATCTGG	0.972 ± 0.012
TCTTATTGG	1.02 ± 0.028
TCTTATTGGG	0.995 ± 0.042
TCTTCACTAA	1 ± 0.052
TCTTCGACCG	1.31 ± 0.28
TCTTCGGCGA	1.46 ± 0.16
TCTTCGGTTT	1.11 ± 0.12
TCTTGAAGG	0.953 ± 0.023

Sequence	switch fluorescence ratio
TCTTGAGCTT	1.04 ± 0.03
TCTTGCCCTG	0.977 ± 0.058
TCTTGGAGAA	1.05 ± 0.06
TCTTGGATGG	0.986 ± 0.04
TCTTGGCTTT	0.976 ± 0.019
TCTTGGGATT	0.981 ± 0.0029
TCTTGGGGGG	1 ± 0.019
TCTTGGTTTT	1.02 ± 0.044
TCTTGTCGGT	1 ± 0.034
TCTTTAAGGT	1.04 ± 0.023
TCTTTACAGT	1.05 ± 0.032
TCTTTCGGTG	1.02 ± 0.04
TCTTTGATTT	1 ± 0.048
TCTTTGCGCC	1.06 ± 0.019
TCTTTTAAGT	0.97 ± 0.033
TCTTTTAATT	1.05 ± 0.07
TCTTTTATGG	1.04 ± 0.093
TCTTTTCAGC	0.992 ± 0.045
TCTTTTGGAG	0.996 ± 0.045
TCTTTTGGTA	0.9895 ± 0.0052
TCTTTTTTCC	1.1 ± 0.1
TGAAAAAAAC	0.9871 ± 0.0072
TGAAAAAAGA	0.988 ± 0.019
TGAAAAAGTG	0.9941 ± 0.0077
TGAAAAATGG	1.01 ± 0.031
TGAAAAATTT	0.988 ± 0.025

Sequence	switch fluorescence ratio
TGAAAACGGT	1 ± 0.035
TGAAAAGTTG	0.987 ± 0.1
TGAAAATAGG	0.9771 ± 0.0068
TGAAAATGGT	0.996 ± 0.015
TGAAACACCG	1.46 ± 0.66
TGAAACATTT	0.975 ± 0.036
TGAAACGTAT	0.993 ± 0.023
TGAAAGATTT	1 ± 0.03
TGAAAGCCAC	1.1 ± 0.024
TGAAAGGGGA	1.03 ± 0.054
TGAAATCATA	0.996 ± 0.037
TGAAATTCTT	1.012 ± 0.0094
TGAACATTTT	1.07 ± 0.079
TGAACGGTTC	1.02 ± 0.021
TGAACTCGGG	0.989 ± 0.017
TGAACTCTAG	1.02 ± 0.059
TGAACTTGCT	1.02 ± 0.074
TGAAGAATGT	1.02 ± 0.017
TGAAGACATT	1.02 ± 0.04
TGAAGACCAT	1.016 ± 0.0058
TGAAGAGGAT	1.09 ± 0.15
TGAAGATCGC	1.02 ± 0.018
TGAAGCATTG	1.35 ± 0.38
